Experimental data: patent US20240279678A1

What was measured:
[1] = target: HIV envelope gp120 of HIV recombinant strain NL43 that expresses GFP (HIV-1); assay: cell-based or functional assay
[2] = target: HIV envelope gp120 of HIV-1 strain HXB2 engineered to express Green Fluorescence Protein (HIV-1) (UniProt P04578); assay: cell-based or functional assay

sCD4(D1+D2) (from UniProt P01730 26-203) (receptor)
% GFP positive cells, FIG. 8A, AGT116-transduced PBMC (control 0.46%) [1]: 0.3%
% GFP positive cells, FIG. 8B, AGT116-transduced PBMC (control 7.75%) [1]: 3.67%
% HIV positive primary CD4 T cells, AGT116-transduced (control 2.83%) [1]: 2.65%

sCD4(D1+D2)-IgG1 Fc (Fc fusion)
% GFP positive C8166 cells, NL4-GFP with version 1, average [1]: 8.47%
% GFP positive C8166 cells, NL4-GFP with version 1, replicate 2 [1]: 7.49%
% GFP positive cells, FIG. 8A, AGT117-transduced PBMC, column NL43-sCD4-Ig (control 0.46%) [1]: 0.26%
% GFP positive cells, FIG. 8B, AGT117-transduced PBMC, column NL43-sCD4-Ig (control 7.75%) [1]: 2.98%
% HIV positive primary CD4 T cells, AGT117-transduced (control 2.83%) [1]: 0.65%
decrease in HIV infection, primary CD4 T cells [1]: 77%
proportion of infected CD4 T cells, AGT117-transduced (no vector average of 2%) [1]: 0.024%
virus inhibition, NL4-GFP challenge of C8166 cells [1]: 53%
% GFP positive C8166 cells, HXB2-GFP with version 1, replicate 2 [2]: 1.22%
inhibition of virus infection, HXB2-GFP challenge of C8166 cells [2]: 91%

VRC01 antibody (antibody secretory signal construct, expressed from AGT113)
% HIV positive primary CD4 T cells, AGT113-transduced (un-transduced 1.28%) [1]: 0.36%
decrease in HIV infection, C8166 cells [1]: 96.7%

3BNC117 antibody (IL-2 secretory signal construct, expressed from AGT112)
% GFP positive (HIV-infected) cells, transduced PBMC, donor NY025 (control without vector 3.96%) [1]: 1.79%
% GFP positive (HIV-infected) cells, transduced PBMC, donor NY026 (control without vector 0.57%) [1]: 0.3%

VRC01 antibody (IL-2 secretory signal construct, expressed from AGT111)
% GFP positive cells, CD4 T cells, AGT111 at 2 MOI, day 5 (no vector 0.71%) [1]: 0.38%
% GFP positive cells, CD4 T cells, AGT111 at 2 MOI, day 7 (no vector 2.18%) [1]: 1.37%
% GFP positive cells, CD4 T cells, AGT111 at 4 MOI, day 5 (no vector 0.71%) [1]: 0.32%
% GFP positive cells, CD4 T cells, AGT111 at 4 MOI, day 7 (no vector 2.18%) [1]: 0.94%
% GFP positive cells, CD4 T cells, AGT111 at 8 MOI, day 5 (no vector 0.71%) [1]: 0.25%
% GFP positive cells, CD4 T cells, AGT111 at 8 MOI, day 7 (no vector 2.18%) [1]: 0.36%
decrease in HIV infection, C8166 cells [1]: 75.4%
percent inhibition (cells protected), day 5, AGT111 MOI 8 [1]: 88%
percent inhibition (cells protected), day 7, AGT111 MOI 8 [1]: 93%
percent inhibition (cells protected), day 9, AGT111 MOI 2 [1]: 6%
percent inhibition (cells protected), day 9, AGT111 MOI 4 [1]: 7%
